Experimental data from patent publication US20090054631A1.

Target: receptor for UNQ733 on the surface of lymphoma cell lines and B cells (unidentified) (human)
Assay: flow cytometry on purified human peripheral blood B cells, 48 h with anti-CD40 and rIL-4

His8-tagged UNQ733 polypeptide (ligand)
fold increase of binding on B cells stimulated with anti-CD40 and IL-4 against resting B cells: 2 to 5 fold
